The text below walks through data of patent US20150315277A1 (published 2015).

The target of this experiment is recombinant human DLL4 (hDLL4) (human, UniProt Q9NR61 27-524). Put plainly: Biacore.

One may read the Kd as a measure of binding affinity in units of concentration.

Sequence of recombinant human DLL4 (hDLL4) (Q9NR61 27-524): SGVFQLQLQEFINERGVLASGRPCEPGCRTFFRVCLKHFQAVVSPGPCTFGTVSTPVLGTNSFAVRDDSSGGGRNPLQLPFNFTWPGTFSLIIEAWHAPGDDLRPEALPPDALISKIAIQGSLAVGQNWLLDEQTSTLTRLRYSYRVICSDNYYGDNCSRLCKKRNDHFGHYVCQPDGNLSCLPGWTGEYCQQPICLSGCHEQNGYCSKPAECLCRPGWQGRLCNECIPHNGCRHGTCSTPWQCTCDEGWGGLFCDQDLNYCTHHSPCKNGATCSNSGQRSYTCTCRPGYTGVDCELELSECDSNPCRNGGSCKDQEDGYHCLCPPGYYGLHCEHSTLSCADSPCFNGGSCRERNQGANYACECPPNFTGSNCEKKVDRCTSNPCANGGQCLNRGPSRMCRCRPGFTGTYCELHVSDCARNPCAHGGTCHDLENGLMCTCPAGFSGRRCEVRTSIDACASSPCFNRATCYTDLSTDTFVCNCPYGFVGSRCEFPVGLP

B1: Notch-1 Fc (rhNotch1-Fc) (Fc fusion)
chain: ARGPRCSQPGETCLNGGKCEAANGTEACVCGGAFVGPRCQDPNPCLSTPCKNAGTCHVVDRRGVADYACSCALGFSGPLCLTPLDNACLTNPCRNGGTCDLLTLTEYKCRCPPGWSGKSCQQADPCASNPCANGGQCLPFEASYICHCPPSFHGPTCRQDVNECGQKPGLCRHGGTCHNEVGSYRCVCRATHTGPNCERPYVPCSPSPCQNGGTCRPTGDVTHECACLPGFTGQNCEENIDDCPGNNCKNGGACVDGVNTYNCRCPPEWTGQYCTEDVDECQLMPNACQNGGTCHNTHGGYNCVCVNGWTGEDCSENIDDCASAACFHGATCHDRVASFYCECPHGRTGLLCHLNDACISNPCNEGSNCDTNPVNGKAICTCPSGYTGPACSQDVDECSLGANPCEHAGKCINTLGSFECQCLQGYTGPRCEIDVNECVSNPCQNDATCLDQIGEFQCICMPGYEGVHCEVNTDECASSPCLHNGRCLDKINEFQCECPTGFTGHLCQ
On to B1, for which the Kd stood at 19.9 nM.
